The text below walks through data of article PMC11055865.

This experiment has as its target MCM8-9 complex (FLAG-tagged MCM8 and MBP-tagged MCM9), wild type (human) (UniProt Q9UJA3). Briefly: mass photometry; MCM8-9 preincubated with HROB (both 1 μM) 10 min at room temperature in 25 mM Tris-HCl pH 7.5, 3 mM EDTA, 50 mM NaCl, then rapidly diluted to 200 nM; complex largely fell apart upon dilution.

Sequence of MCM8-9 complex (FLAG-tagged MCM8 and MBP-tagged MCM9), wild type (human) (Q9UJA3 whole entry, chain 1 of 2): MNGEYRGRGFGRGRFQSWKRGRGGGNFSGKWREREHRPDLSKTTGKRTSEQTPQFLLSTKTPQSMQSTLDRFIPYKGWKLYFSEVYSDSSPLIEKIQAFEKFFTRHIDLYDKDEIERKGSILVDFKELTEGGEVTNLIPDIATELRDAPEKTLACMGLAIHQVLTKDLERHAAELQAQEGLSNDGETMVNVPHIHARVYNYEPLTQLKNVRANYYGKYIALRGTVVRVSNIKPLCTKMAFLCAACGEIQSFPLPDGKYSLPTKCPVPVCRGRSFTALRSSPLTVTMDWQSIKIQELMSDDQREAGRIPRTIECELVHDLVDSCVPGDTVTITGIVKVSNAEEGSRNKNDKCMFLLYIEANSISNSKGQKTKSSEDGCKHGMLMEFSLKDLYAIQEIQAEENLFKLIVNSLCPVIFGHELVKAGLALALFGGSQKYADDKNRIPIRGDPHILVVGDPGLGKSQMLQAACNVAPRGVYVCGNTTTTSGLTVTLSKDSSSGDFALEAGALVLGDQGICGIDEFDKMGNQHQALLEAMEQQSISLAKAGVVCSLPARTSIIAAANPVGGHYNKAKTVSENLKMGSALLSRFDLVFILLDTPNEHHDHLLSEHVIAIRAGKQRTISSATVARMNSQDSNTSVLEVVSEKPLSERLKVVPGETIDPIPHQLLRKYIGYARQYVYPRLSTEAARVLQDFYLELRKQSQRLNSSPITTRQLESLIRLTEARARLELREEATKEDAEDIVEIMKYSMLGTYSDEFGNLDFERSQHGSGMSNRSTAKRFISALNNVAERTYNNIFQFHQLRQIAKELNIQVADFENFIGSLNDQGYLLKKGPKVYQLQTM
Sequence of MCM8-9 complex (FLAG-tagged MCM8 and MBP-tagged MCM9), wild type (human) (Q9NXL9 whole entry, chain 2 of 2, further chain): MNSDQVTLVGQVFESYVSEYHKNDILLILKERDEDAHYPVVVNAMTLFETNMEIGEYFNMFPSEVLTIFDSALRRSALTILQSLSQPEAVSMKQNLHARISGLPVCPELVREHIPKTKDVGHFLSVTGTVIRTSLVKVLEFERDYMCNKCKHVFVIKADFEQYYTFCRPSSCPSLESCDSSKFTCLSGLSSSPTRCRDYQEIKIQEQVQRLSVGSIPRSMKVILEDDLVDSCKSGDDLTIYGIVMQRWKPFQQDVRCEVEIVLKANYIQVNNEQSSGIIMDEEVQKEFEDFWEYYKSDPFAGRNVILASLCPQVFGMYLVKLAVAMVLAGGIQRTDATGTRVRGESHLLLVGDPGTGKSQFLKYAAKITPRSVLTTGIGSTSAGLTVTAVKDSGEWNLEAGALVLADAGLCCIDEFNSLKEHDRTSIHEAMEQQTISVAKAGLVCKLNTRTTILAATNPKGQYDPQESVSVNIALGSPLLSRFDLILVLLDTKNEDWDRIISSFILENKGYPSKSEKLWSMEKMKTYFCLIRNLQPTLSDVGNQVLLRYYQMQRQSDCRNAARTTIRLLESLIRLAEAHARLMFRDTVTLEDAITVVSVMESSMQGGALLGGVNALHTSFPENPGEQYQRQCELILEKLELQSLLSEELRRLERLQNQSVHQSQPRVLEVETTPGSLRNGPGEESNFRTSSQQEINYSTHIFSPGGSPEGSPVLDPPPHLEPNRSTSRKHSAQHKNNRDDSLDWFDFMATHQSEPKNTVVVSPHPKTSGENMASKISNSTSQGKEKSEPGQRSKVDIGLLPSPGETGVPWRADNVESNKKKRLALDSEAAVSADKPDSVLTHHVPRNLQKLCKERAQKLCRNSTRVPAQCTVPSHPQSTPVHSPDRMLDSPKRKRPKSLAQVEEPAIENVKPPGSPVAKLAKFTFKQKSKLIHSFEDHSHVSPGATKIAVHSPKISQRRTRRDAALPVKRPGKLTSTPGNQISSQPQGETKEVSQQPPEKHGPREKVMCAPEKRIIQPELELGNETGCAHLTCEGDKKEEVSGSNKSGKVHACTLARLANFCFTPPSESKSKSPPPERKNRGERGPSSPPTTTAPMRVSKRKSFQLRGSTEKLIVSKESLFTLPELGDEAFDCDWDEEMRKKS

Turning to “HROB-FLAG (wild type HROB, homologous recombination factor with OB-fold) (from UniProt Q8N3J3-4 1-646) (natural protein)”, the stoichiometry N (HROB per MCM8-9 heterodimer) turned out to be 1.
